The target in experiment [1] is HIV-1 M-group (NL4-3) N-terminal capsid domain. Nature of the experiment: ITC.
Experiment [2] has as its target HIV-1 M-group (NL4-3) N-terminal capsid domain (HIV-1 M-group (NL4-3)).
Experiment [3] shares this target. Nature of the experiment: ITC; MicroCal ITC200, 15°C, 50 mM potassium phosphate pH 7.4, 100 mM NaCl, 1 mM DTT; NUP358Cyp (typical 2.5 mM) in the syringe, capsid domain (typical 0.2 mM) in the cell; one set of binding sites model. In general terms: In ITC the heat of successive injections is recorded.
The target of experiment [4] is HIV-1 capsid CAN (Human immunodeficiency virus 1) (UniProt O93182). To be noted: cited from earlier work.

pKd: −log10 of the molar value.

In experiment [1], “cyclophilin domain from human NUP358 (from UniProt P49792) V113F” yielded an other: N (stoichiometry) of 0.74, an other: ΔH of -10.8 kcal/mol and an other: ΔS ((cal/mol)/deg) of -16.5.

With “cyclophilin domain from human NUP358 (from UniProt P49792) V61M; V113F”, in experiment [1], the other: N (stoichiometry) is 1.43, the other: ΔH is -7.45 kcal/mol and the other: ΔS ((cal/mol)/deg) is -5.26.

The substance “cyclophilin domain from human NUP358 (from UniProt P49792 3057-3224) (domain or fragment)” had a rate of cis-trans isomerization of the capsid G89-P90 bond catalysed by NUP358Cyp (NMR ZZ-exchange; 430 μM CA^N, 35 μM NUP358Cyp, 298 K) in experiment [2] of 12.1 s⁻¹. In addition, the pKd (in general, the negative decadic logarithm of the Kd, by convention in mol/L) in experiment [3] is 4.03.

Take NUP358 Cyp (from UniProt P49792): the pKd in experiment [4] is 3.70.

Source of the values: publication PMC3750474.
